From patent US20240003906A1, “Biomarker of Fibrosis” (Nordic Bioscience A/S, priority 2020, published 2024)
Where no end group is shown, it is not given here.

Key:
[1] = target: T1, Elongated peptide KAGGFAPYYGD; test: indirect competitive ELISA (final inhibition)
T1 peptide: KAGGFAPYYGD

[2] = target: T2, Truncated peptide KAGGFAPYY; test: indirect competitive ELISA (final inhibition)
T2 peptide: KAGGFAPYY

[3] = target: T3, Dimeric elongated peptide CKAGGFAPYYGD x CKAGGFAPYYGD (also: homodimer linked by Cys1 disulphide, disulfide at 1, other end not in the chain); test: direct sandwich ELISA, NBH-242 as capture and detection antibody
T3 peptide: CKAGGFAPYYGD
Experimental: (§1) Unbound primary antibody and sample was discarded, and the wells were washed with washing buffer. Subsequently, 100 μL chemiluminescence substrate was added to the wells, plates were incubated for 3 minutes at 20° C. in the dark rotating 300 rpm. Finally, the luminescence emitted was quantified with an ELISA reader (VersaMAX; Molecular Devices, Wokingham Berkshire, UK) set to measure the luminescence at 450 nm and 650 nm. […] Unknown sample measurements were interpolated with the standard curve to obtain the concentration (ng/mL) of the CTX-III fragment.
(§2) By plotting the calculated percentage recovery, the specificity of the antibodies in the direct sandwich ELISA towards the dimeric peptides was tested.

[4] = target: T4, Dimeric truncated peptide CKAGGFAPYY x CKAGGFAPYY (also: homodimer linked by Cys1 disulphide, disulfide at 1, other end not in the chain); test: as above
T4 peptide: CKAGGFAPYY
Experimental: as §1, §2

[5] = target: T5, Dimeric selection peptide CKAGGFAPYYG x CKAGGFAPYYG (human, also: homodimer linked by Cys1 disulphide, disulfide at 1, other end not in the chain); test: as above
T5 construct: Synthetic dimer of two identical strands; standard of the sandwich ELISA; also called dimeric human selection peptide
T5 peptide: CKAGGFAPYYG
Experimental: as §1, §2

[6] = target: T6, Rat dimeric peptide CKSGGFSPYYG x CKSGGFSPYYG (rat, also: homodimer cross-linked by disulphide N-terminal to antibody binding site, disulfide at 1, other end not in the chain); test: as above
T6 construct: also called dimeric rat peptide; rat selection peptide
T6 peptide: CKSGGFSPYYG
Experimental: as §1, §2

[7] = target: T7, Selection peptide KAGGFAPYYG (human); test: indirect competitive ELISA, selection peptide competing with coated biotin-KAGGFAPYYG
T7 construct: Synthetic monomeric peptide (Genscript); also called human selection peptide
T7 peptide: KAGGFAPYYG

[8] = target: T8, dimeric truncated peptide (CKAGGFAPYY×CKAGGFAPYY (SEQ ID NO: 18)) (Homo sapiens, UniProt P02461); test: Direct sandwich ELISA specificity towards dimeric peptides; type: binding; conditions: NBH-242 as capture and detection antibody, FIG. 3
T8 construct: purchased Genscript, Piscataway, NJ, USA; host or cells: synthetic peptide
Experimental: (§3) 96-well plates precoated with streptavidin (Roche Diagnostic's, Hvidovre, Denmark, cat. No. 11940279) were coated with 100 μL of the biotinylated antibody targeting the CTX-III fragment diluted 1+100 in assay buffer (50 mM PBS, 1% BSA, 1% Tween-20, 150 mM NaCl, pH 7.4) for 30 minutes at room temperature rotating at 300 rounds-per-minute (rpm). Unbound biotinylated capture antibody was discarded, and the wells were washed with washing buffer (25 mM TRIZMA, 50 mM NaCl, 0.036% Bronidox L5, 0.1% Tween 20) using a standardized ELISA plate washing machine (BioTek® Instruments, Microplate washer, ELx405 Select CW, Winooski, USA). All samples and the detection antibody were diluted in incubation buffer (50 mM PBS, 1% BSA, 1% Tween-20, 150 mM NaCl, 5% Liquid II, pH 7.4), with the detection antibody being diluted 1+100. 20 μL of sample material and controls were incubated with 100 μL HRP labelled detection antibody targeting the CTX-III fragment, at 4° C. for 20 hours and agitated at 300 rpm. […] Finally, the luminescence emitted was quantified with an ELISA reader (VersaMAX; Molecular Devices, Wokingham Berkshire, UK) set to measure the luminescence at 450 nm and 650 nm. […]
(§4) The lower limit of detection (LLOD) was determined from 21 zero samples (i.e. incubation buffer) and calculated as the mean+3× standard deviation, whereas the upper limit of detection (ULOD) was determined from 10 measurements of the dimeric selection peptide calculated as the mean+3× standard deviation. The inter- and intra-assay variation was determined by 10 independent runs of five quality control (QC) samples with minimum three of these being healthy human plasma EDTA samples (Valley Biomedical, Winchester, VA, USA), with each run consisting of double determinations of the samples. […] Assay linearity was determined by calculating the percentage recovery (100%±20%) of a 1:6-fold dilution of healthy human plasma EDTA samples with a significant concentration, using the undiluted sample as reference. […] Subsequently, the percentage recovery between the control sample and the low or high interferent samples were calculated.

[9] = target: T9, Rat dimeric peptide (CKSGGFSPYYG×CKSGGFSPYYG) (Rattus norvegicus, UniProt P13941); test: as above; type: binding; conditions: NBH-242 as capture and detection antibody, FIG. 3
T9 construct: purchased Genscript, Piscataway, NJ, USA; host or cells: synthetic peptide
Experimental: as §3, §4

[10] = target: T10, dimeric elongated peptide (CKAGGFAPYYGD×CKAGGFAPYYGD (SEQ ID NO: 17)) (Homo sapiens, UniProt P02461); test: as above; type: binding; conditions: NBH-242 as capture and detection antibody, FIG. 3
T10 construct: purchased Genscript, Piscataway, NJ, USA; host or cells: synthetic peptide
Experimental: as §3, §4

B1: monoclonal antibody NBH-242 (antibody, mouse IgG2a, kappa, V domains shown)
VH: QVQLQQSGAELVRPGVSVKISCKGSGHTFTDHGMHWVKQSQAKSLEWIGVISTYYGDATYNQKFKGKATMTVDKSSSTAYMELARLTSEDSAIYYCARSMGGNYVGTGFAYWGQGTLVTVSA
VL: DIVMTQAAPSVPVTPGESVSISCRSSKSLLHSNGNTYLYWFLQRPGQSPQLLIYRMSNLASGVPDRFSGSGSGTAFTLRISRVEAEDVGVYYCMQHLEFPLTFGAGTKLELKR
notes: In the sandwich ELISA the antibody was biotinylated (capture) and HRP-labelled (detection); also called monoclonal NBH-242 antibody; capture antibody
no binding: binding result [1] | binding result [2] | binding result [3] | binding result [4] | binding result [6]
binds: binding result [5] | binding result [7]

B2: NBH-242: neo-epitope specific antibody directed towards the C-terminal neo-epitope in the C-terminal telopeptide of type III collagen (CT-III), …-COOH (antibody)
heavy: QVQLQQSGAELVRPGVSVKISCKGSGHTFTDHGMHWVKQSQAKSLEWIGVISTYYGDATYNQKFKGKATMTVDKSSSTAYMELARLTSEDSAIYYCARSMGGNYVGTGFAYWGQGTLVTVSAAKTTAPSVYPLAPVCGDTTGSSVTLGCLVKGYFPEPVTLTWNSGSLSSGVHTFPAVLQSDLYTLSSSVTVTSSTWPSQSITCNVAHPASSTKVDKKIEPRGPTIKPCPPCKCPAPNLLGGPSVFIFPPKIKDVLMISLSPIVTCVVVDVSEDDPDVQISWFVNNVEVHTAQTQTHREDYNSTLRVVSALPIQHQDWMSGKEFKCKVNNKDLPAPIERTISKPKGSVRAPQVYVLPPPEEEMTKKQVTLTCMVTDFMPEDIYVEWTNNGKTELNYKNTEPVLDSDGSYFMYSKLRVEKKNWVERNSYSCSVVHEGLHNHHTTKSFSRTPGK
light: DIVMTQAAPSVPVTPGESVSISCRSSKSLLHSNGNTYLYWFLQRPGQSPQLLIYRMSNLASGVPDRFSGSGSGTAFTLRISRVEAEDVGVYYCMQHLEFPLTFGAGTKLELKRADAAPTVSIFPPSSEQLTSGGASVVCFLNNFYPKDINVKWKIDGSERQNGVLNSWTDQDSKDSTYSMSSTLTLTKDEYERHNSYTCEATHKTSTSPIVKSFNRNE
no reactivity: reactivity towards the dimeric truncated peptide [8] | reactivity towards the dimeric rat peptide [9] | reactivity towards the dimeric elongated peptide [10]
